The target in assay [1] is purified recombinant Ded1p (S. cerevisiae) (UniProt P06634). In words: cross-linking.
For assay [2] the target is unchanged. The experiment in a line: cross-linking. This is another data set of the same source.

Values joined by “and” are separate entries in the source; they are usually repeats but may differ in a detail not shown here. Identical values can stand only once. Like-named read-outs stand apart in the source and are kept apart here.

As for “purified recombinant Ded1p (from UniProt P06634 1-604) (natural protein; other documents disagree on this pair)”, the stoichiometry N (as a rule, a count of units in the complex or per binding partner) in assay [1] was 2 and 3; in assay [2], below 5.

For the origin of these results see article PMC4546514.
